The text below walks through data of patent US6440409.

Series [1] concerns the target T1, translation elongation factor 2 (EF-2), toxin-sensitive form with diphthamide.
T1 chain: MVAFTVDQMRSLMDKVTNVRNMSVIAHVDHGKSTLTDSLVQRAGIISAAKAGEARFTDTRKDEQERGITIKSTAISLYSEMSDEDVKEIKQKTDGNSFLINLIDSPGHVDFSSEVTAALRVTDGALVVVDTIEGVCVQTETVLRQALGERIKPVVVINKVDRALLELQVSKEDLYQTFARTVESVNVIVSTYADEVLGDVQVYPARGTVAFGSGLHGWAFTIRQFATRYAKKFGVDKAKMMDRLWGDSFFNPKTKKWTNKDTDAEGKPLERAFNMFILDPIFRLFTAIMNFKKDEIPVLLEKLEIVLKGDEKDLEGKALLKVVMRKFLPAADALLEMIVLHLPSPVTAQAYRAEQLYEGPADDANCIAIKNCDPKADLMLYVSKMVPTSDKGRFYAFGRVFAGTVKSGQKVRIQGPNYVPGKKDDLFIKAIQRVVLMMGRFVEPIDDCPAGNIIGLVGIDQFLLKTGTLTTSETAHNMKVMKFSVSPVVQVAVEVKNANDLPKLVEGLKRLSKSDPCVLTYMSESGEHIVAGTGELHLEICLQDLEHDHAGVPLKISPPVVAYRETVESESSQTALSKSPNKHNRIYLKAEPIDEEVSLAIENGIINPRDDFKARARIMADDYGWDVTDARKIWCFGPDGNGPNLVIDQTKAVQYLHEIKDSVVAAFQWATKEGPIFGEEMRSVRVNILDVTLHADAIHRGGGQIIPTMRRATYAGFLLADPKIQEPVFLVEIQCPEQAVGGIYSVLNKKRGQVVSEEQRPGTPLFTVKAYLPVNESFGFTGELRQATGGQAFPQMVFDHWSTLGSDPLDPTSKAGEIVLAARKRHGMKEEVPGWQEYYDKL

For series [2], the target named is T2, translation elongation factor 2 (EF-2), toxin-resistant form without diphthamide (dph1::TRP1 strains).
T2 chain: T1 chain

B1: diphtheria toxin F2 fragment (protein)
chain: GADDVVDSSKSFVMENFSSYHGTKPGYVDSIQKGIQKPKSGTQGNYDDDWKGFYSTDNKYDAAGYSVDNENPLSGKAGGVVKVTYPGLTKVLALKVDNAETIKKELGLSLTEPLMEQVGTEEFIKRFGDGASRVVLSLPFAEGSSSVEYINNWEQAKALSVELEINFETRGKRGQDAMYEYMAQACAGNRVRR
For B1, the “viable diploids after mating of the killer strain (TMY401 with pTM147) with the target strain (TMY407 with pRS426), selected on SC-Ura, His” value in series [1] is “very few viable diploids appear at the intersection of the killer and target strains”. In addition, the “viable diploids after mating of the killer strain (TMY401 with pTM147) with the diphtheria toxin-resistant strain TMY403 (dph1::TRP1), selected on SC-Ura, His” value in series [2] is recorded as “healthy diploids are readily obtained”.
